Source: the supplement of paper PMC10724198
± gives the standard deviation of the averaged measurements.

Each sequence was assayed on Saccharomyces cerevisiae (assay: protein stability index of tFT-peptide fusion (C-terminal peptide) (PSI (0-1 scale)); higher = more stable (slower turnover)). Conditions: genetic background: wild type; temperature: 30 C.
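Also: PSI is a weighted mean of sequencing reads over stability bins, variants kept only with over 10 reads, mCherry proximal and sfGFP distal, peptide attached via GGGS linker.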

Sequence | protein stability index
RYASSRTLFAAV | 0.672 ± 0.069
RYGLSLLQASRR | 0.679 ± 0.081
RYLQAGDYTKVY | 0.695 ± 0.1
RYPSAPPKISAS | 0.613 ± 0.0083
RYQMVTGPPQRH | 0.6921 ± 0.004
RYVVTVQGSGGE | 0.688 ± 0.045
SAAVDSPIFPSS | 0.6916 ± 0.00075
SAELGHTNLCRS | 0.6781 ± 0.0041
SAFSSSLTALPP | 0.653 ± 0.022
SAGGARSLQMFC | 0.66 ± 0.027
SAGHHACRRYAG | 0.683 ± 0.037
SAGVTGREVFVG | 0.631 ± 0.015
SALNKPLTTESG | 0.6586 ± 0.0021
SAPQPPFPFPPS | 0.696 ± 0.0093
SAPRFPARFYPL | 0.66705 ± 0.0003
SAPRRPPLIFPG | 0.672 ± 0.11
SARPDLAERHRP | 0.673 ± 0.013
SASAILPWAIKL | 0.639 ± 0.075
SASLPSPPFPSP | 0.649 ± 0.054
SASSLPVVAARA | 0.544 ± 0.021
SASVLVLRRSSP | 0.732 ± 0.074
SCARARFAPHHS | 0.734 ± 0.0092
SCCSLCKAVRNL | 0.718 ± 0.054
SCFVAWAFCGWY | 0.554 ± 0.0084
SCFVWAFRCWGF | 0.621 ± 0.043
SCGWWWGGGAGG | 0.656 ± 0.041

Sequence | protein stability index
SCHEARWEVVMW | 0.771 ± 0.17
SCHGGWFLHVFT | 0.645 ± 0.018
SCKARPLVAASD | 0.66 ± 0.044
SCLPPSRPSSAL | 0.629 ± 0.019
SCLSGALPPFLA | 0.668 ± 0.042
SCLSLALYASHF | 0.56 ± 0.033
SCLYPGLCLSYF | 0.674 ± 0.0069
SCMSVRKSSPRS | 0.691 ± 0.044
SCPAPAALPLPR | 0.674 ± 0.026
SCPPVLFFPFPW | 0.705 ± 0.051
SCRLALPPSFLS | 0.706 ± 0.024
SCYGPRAPFHSP | 0.581 ± 0.074
SCYHGDYCTVAW | 0.7062 ± 0.0017
SDEIKTLGLRKK | 0.683 ± 0.025
SDPLRLPNTCQH | 0.669 ± 0.009
SDSAPPPAALPH | 0.7263 ± 0.0029
SDSSRRVFDVRR | 0.705 ± 0.046
SDTHYLAGELCT | 0.596 ± 0.034
SDVAWVEAPPRS | 0.678 ± 0.097
SECLCVRDRCGG | 0.685 ± 0.078
SELVARGGGGGW | 0.728 ± 0.07
SESVGLCLGVTW | 0.767 ± 0.05
SEVFAVGITGVI | 0.6788 ± 0.0039
SFAPPLRCPPSS | 0.709 ± 0.02
SFDPCLCTLSLL | 0.6961 ± 0.0049
SFDPPYALLPPP | 0.685 ± 0.02

Sequence | protein stability index
SFIFTLRRSRPR | 0.667 ± 0.012
SFLGYAVFPYKG | 0.6808 ± 0.0041
SFLVPLTAHISP | 0.673 ± 0.083
SFPLPSLSSPSS | 0.61 ± 0.075
SFPPFSPLYSPP | 0.717 ± 0.067
SFPPPLPPPLHP | 0.721 ± 0.06
SFQCTCLSPCTG | 0.652 ± 0.07
SFRPPSTPRRRT | 0.695 ± 0.03
SFRYVGLTRVFG | 0.592 ± 0.032
SFSCYFPLGFFG | 0.7416 ± 0.001
SFSLSMFVTYSF | 0.505 ± 0.03
SFSLVATESPVT | 0.709 ± 0.052
SFSRLYGCVPRD | 0.678 ± 0.0098
SFSSAVIPPFAP | 0.728 ± 0.053
SFTLPPPLLSRT | 0.747 ± 0.008
SFVDDILVRPIA | 0.715 ± 0.05
SFVGGKLRTEYS | 0.71 ± 0.068
SFVSDYIILIVL | 0.497 ± 0.081
SFWNLFAGWYVI | 0.685 ± 0.03
SGAGVGGQVAVG | 0.717 ± 0.061
SGDVGVGHWVGG | 0.692 ± 0.022
SGEKKPTKGTRT | 0.57 ± 0.055
SGEVSYVYVGNK | 0.6553 ± 0.0011
SGFLLSPPRPSF | 0.693 ± 0.042
SGGAEGVRAGAA | 0.715 ± 0.081
SGGQDSFVLRLG | 0.6687 ± 0.0015

Sequence | protein stability index
SGGRGAILVSVV | 0.647 ± 0.078
SGGVKGKKKGEK | 0.702 ± 0.043
SGHGFFMCLFRC | 0.552 ± 0.028
SGIEAGAELGVG | 0.567 ± 0.011
SGIEHVLIVYDT | 0.679 ± 0.11
SGIRGWNLGEMW | 0.7152 ± 0.0068
SGKIDKGAIAIS | 0.663 ± 0.049
SGLPLLSSYATR | 0.72 ± 0.048
SGLQPADMVFFR | 0.749 ± 0.056
SGPSIPCFLYSS | 0.698 ± 0.013
SGSFQGNVRVPC | 0.676 ± 0.017
SGSRFRTVRAPE | 0.654 ± 0.032
SGSRRTSRVGSR | 0.721 ± 0.0087
SGSRWYYSLGRG | 0.709 ± 0.043
SGSSLCSVGWLV | 0.718 ± 0.044
SGSWRFYPSTTC | 0.706 ± 0.056
SGTRDELVFVAV | 0.6755 ± 0.0061
SGVEGTRQGSVS | 0.711 ± 0.068
SGVLKHLRKESS | 0.641 ± 0.018
SGVRSPALLGRC | 0.68 ± 0.042
SHGELLLGPVFL | 0.748 ± 0.009
SHGQAPFNVLVA | 0.596 ± 0.025
SHHKAFFDLVFM | 0.7578 ± 0.0051
SHLFPCRSSFPP | 0.656 ± 0.037
SHLGPYPAPARP | 0.7185 ± 0.006
SHLKEHREEELE | 0.647 ± 0.0097

Sequence | protein stability index
SHLSTLSHPPPP | 0.637 ± 0.043
SHRLPPPPPPPS | 0.758 ± 0.14
SHSHMRRLKMYR | 0.717 ± 0.089
SHTAWEQRVPKQ | 0.729 ± 0.02
SHVPLAKLSLFP | 0.756 ± 0.024
SIDGFAFCVGGV | 0.737 ± 0.058
SIKKFRTRKRRR | 0.67 ± 0.12
SIRHPYEFFARS | 0.738 ± 0.031
SIRLGGSVVELV | 0.694 ± 0.041
SISIGVRHSRPP | 0.609 ± 0.033
SISLSLSQSDRR | 0.614 ± 0.016
SKEKKRPDNKTF | 0.71 ± 0.048
SKKKRQNQLIKM | 0.7527 ± 0.0032
SKKKTKKRRKKN | 0.698 ± 0.023
SKNEFKKIMKKY | 0.711 ± 0.083
SKSNIAGIRKEL | 0.6774 ± 0.0063
SKSRGVIVTVMV | 0.5681 ± 0.00072
SLAPPVILPSHP | 0.659 ± 0.041
SLATFRTLLPES | 0.667 ± 0.019
SLAVAPHIATQQ | 0.701 ± 0.011
SLAVDVRVSWEI | 0.704 ± 0.017
SLCPRVCSERVP | 0.722 ± 0.031
SLCWDVLFLPVV | 0.736 ± 0.064
SLELWPGAKGAP | 0.702 ± 0.1
SLFFFNFPLCAL | 0.559 ± 0.019
SLFGMACDGGLP | 0.6873 ± 0.0043

Sequence | protein stability index
SLFLFCLRCLQF | 0.576 ± 0.037
SLFPSEPRPPSL | 0.719 ± 0.03
SLGAPPAVVSSY | 0.6822 ± 0.0033
SLHSPPHPPPHA | 0.673 ± 0.011
SLLHSIPSSPPF | 0.729 ± 0.041
SLLLPLFLPPSL | 0.723 ± 0.0086
SLLLPPPPPSPH | 0.731 ± 0.042
SLLPAPTPCPPP | 0.701 ± 0.033
SLLPGGHRWAGI | 0.659 ± 0.025
SLLRSPSLPQSN | 0.634 ± 0.095
SLLSSPFPCLRQ | 0.766 ± 0.087
SLLYIQDFVSGV | 0.683 ± 0.019
SLMLDGRSTKAA | 0.6912 ± 0.0035
SLMRRFRGQWRV | 0.71 ± 0.06
SLPCLFPPPLLP | 0.726 ± 0.045
SLPPDPPSSYSP | 0.632 ± 0.044
SLPPPAAPLPFP | 0.7346 ± 0.00096
SLPPPPSQLRPL | 0.726 ± 0.015
SLPPPSPSPSLS | 0.649 ± 0.034
SLPPTLPPRSCP | 0.6211 ± 0.0019
SLPQAPLRPAPS | 0.656 ± 0.046
SLPRSHRRGPVP | 0.663 ± 0.014
SLPSWPPAPLPG | 0.703 ± 0.025
SLPVLSSRTSIQ | 0.687 ± 0.012
SLPVSSPIRILF | 0.6326 ± 0.0015
SLQAYASALIHV | 0.687 ± 0.0098

Sequence | protein stability index
SLRKVTEKDKRT | 0.677 ± 0.064
SLRRLSPLPLAS | 0.7 ± 0.04
SLSEEWAHIGGL | 0.643 ± 0.0072
SLSERPKFSIYV | 0.656 ± 0.049
SLSGSPIPFIRL | 0.764 ± 0.072
SLSIAPAPLDFP | 0.655 ± 0.084
SLSLFPPRRLLP | 0.734 ± 0.088
SLSSTVPRFCEV | 0.6241 ± 0.0028
SLSVPTTLFLFS | 0.7 ± 0.017
SLTLVCRKYILL | 0.633 ± 0.024
SLVAALHRPTFV | 0.679 ± 0.034
SLVCCGPVWVFL | 0.573 ± 0.022
SLVLLSACRFGF | 0.654 ± 0.073
SLVPFSPPRSPP | 0.689 ± 0.083
SLVVFGFGGYLL | 0.686 ± 0.021
SLWPLFVDVVCL | 0.498 ± 0.042
SMCAFRPFPFSS | 0.70891 ± 0.00011
SMCSVAGVWWLG | 0.728 ± 0.062
SMDISYLISFQR | 0.7426 ± 0.0049
SMYHSCTFRTTV | 0.586 ± 0.021
SMYLPSSSDVLS | 0.736 ± 0.014
SNGTRGSKLPAI | 0.685 ± 0.055
SNIGFLLCSLFL | 0.59078 ± 4.5e-05
SNLYNSENVPVD | 0.709 ± 0.041
SPAARPLFRTIS | 0.61 ± 0.054
SPAPPSQFPSFA | 0.818 ± 0.11

Sequence | protein stability index
SPCPLTVAPIIP | 0.644 ± 0.056
SPCTPSRLQPSS | 0.65 ± 0.027
SPDHATYHNPAR | 0.76 ± 0.074
SPFPAPCVFPSR | 0.761 ± 0.1
SPGARRRGGAGR | 0.659 ± 0.047
SPIHSLNYASSC | 0.7217 ± 0.0015
SPLAPLPPPPLT | 0.884 ± 0.1
SPLDEYIDSVPA | 0.726 ± 0.017
SPLLLLPAPPPP | 0.673 ± 0.014
SPLLPPRSPPLP | 0.752 ± 0.032
SPLLVLTPLFPP | 0.651 ± 0.074
SPLPHPSPPPSP | 0.662 ± 0.016
SPLPPPRSSSPP | 0.76 ± 0.14
SPLPPPSHALLP | 0.712 ± 0.089
SPLPRSLPPLPP | 0.654 ± 0.019
SPLSLPPPHPPP | 0.654 ± 0.0069
SPNAPMPPRPRH | 0.594 ± 0.033
SPPICLPLFRVR | 0.65 ± 0.017
SPPLCAPPHPPA | 0.679 ± 0.04
SPPLLHLSNSRH | 0.654 ± 0.059
